# Test results published in patent US9481870B2, “Nucleic acid encoding a polypeptide having aminotransferase activity, vectors and host cells comprising the nucleic acid” (KANEKA CORPORATION, priority 2010, dated 2016).
# B1: TPM: purified aminotransferase polypeptide from Pseudomonas sp. MV37, about 50,000 molecular weight, amino acid sequence SEQ ID NO: 1 (protein, listed as Pseudomonas sp.)
# chain: MNHLEKMLELDRNHLIHPHLPKSEFSRTIFARGKGCKLWDTEGREYLDATGGLWLAQIGHGREEIAEVAARQMKQLEYFTCFWDFSNERAIELAEKLARLAPGDLEMSFFTSGGSEGDDAAIKTARYYHSQRGEPKRTWILSRNNAYHGLAYGGGTATGFPELRDGMGPGLPHVAYLTQPNAYRHYYFDGQNPTDFCVSELEKMIASIGAENIAAMIAEPIMGVGGMVPPPVDYWPRMSQVLKKNGILLIFDEVVSAFGRSGHWFAAEKYGVIPDIMVTAKGISSGYIPLGAVIMSRDVADTVREGHGYPLGYTYSGHPVACAVALENLRILEDEDLINRSNHMGTYIAEQLTALRDNPCVGEVRQAGMGIGIELVTDKESRQPLPDAALVIPDIIREETGVIVRISNATNLCMSPPLTMSREEADRAVEAVCSVLSRVKPDGKV
# Test: Transamination activity assay (activity assay A), activity for (S)-1-phenethylamine
# Assay type: biochemical
# Settings: (S)-1-phenethylamine 25 mM, sodium pyruvate 25 mM, pH 8.0, 30° C., 5 minutes
# Protocol: The above transamination activity can be determined by the following method. Specifically, first, a purified polypeptide is added to a substrate solution having the following composition so that the total volume is 1 mL. After 5 minutes of reaction at 30° C., 0.05 mL of 6N hydrochloric acid is added to stop the reaction. The reaction solution is then analyzed by HPLC under the following conditions and then the quantity of the thus generated acetophenone is determined (hereinafter, referred to as “activity assay A”).
# The transamination activity of purified TPM was examined under the following activity assay conditions. Specifically, purified TPM was added to a substrate solution with the composition given below to a total amount of 1 mL. After 5 minutes of reaction at 30° C., 0.05 mL of 6N hydrochloric acid was added to stop the reaction. HPLC analysis was conducted under the following conditions.
# [High Performance Liquid Chromatography (HPLC) Analysis Conditions] • Column: Wakosil-II 5C18 RS (Wako Pure Chemical Industries, Ltd.) • Eluent: 10 mM potassium phosphate buffer (pH5.3): acetonitrile=3:2 • Flow rate: 1 mL/minute • Detection: 241 nm • (1) Activity for (S)-1-phenethylamine: […]
molecule,measurement,value
B1,Transamination activity for (S)-1-phenethylamine,11.8 U/mg
